Read-outs that look alike come from different tables or passages of the source.

Results on 2 molecules are retold here after patent US20240124575A1 (SIMCERE ZAIMING PHARMACEUTICAL, published 2024).

Experiment [1] has as its target T1, human CD33 on U937 cells (endogenous) (human, UniProt P20138 18-364).
T1 construct: whole, on cells
Briefly: FACS, U937 cells. As to the method: The desired cells were expanded to a logarithmic growth phase in a T-75 cell culture flask. For adherent cells CHO-K1, the culture medium was removed by pipetting, and the cells were washed twice with a PBS buffer, digested with trypsin, and washed twice with a PBS buffer again after the digestion was stopped. For suspension cells U937, the medium supernatant was discarded by direct centrifugation, and the cell pellet was washed twice with PBS, and then incubated with a buffer containing human Fc Block (purchased from BD, Cat. No. 564220) for 15 min. After the cells obtained in the last step were subjected to cell counting, the cell pellet was resuspended to 2×10⁶ cells/mL with a blocking solution [PBS+2% (w/w) BSA] and added to a 96-well FACS reaction plate at 50 μL/well. The VHH-Fc antibody (a sample to be tested) was added at 50 μL/well, and the plate was incubated on ice for 2 h. […] After the plate was centrifuged and washed 5 times with a PBS buffer, the results were assayed and analyzed by FACS (FACS Canto™, purchased from BD Biosciences), so as to obtain the mean fluorescence intensity (MFI) of cells. Then, analysis was performed by software (GraphPad Prism8), data were fitted, and EC50 values were calculated.
Background: A flow cytometer gives signals particle by particle.

In experiment [2] the target is T2, human CD33-C2-his (human, UniProt P20138 136-260).
T2 construct: expressed in HEK293E; also called hCD33-C2-his; human CD33 protein C2-domain; not shown: His tag
T2 sequence (P20138 other isoform, or with tags, fused parts or gaps limits assumed): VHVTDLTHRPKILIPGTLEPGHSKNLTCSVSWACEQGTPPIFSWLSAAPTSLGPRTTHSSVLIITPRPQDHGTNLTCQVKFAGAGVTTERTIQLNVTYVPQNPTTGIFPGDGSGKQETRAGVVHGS
Briefly: ELISA on coated human CD33-C2-his. The source says: (§1) Plates were coated with human CD33-V-his (membrane distal end) and human CD33-C2-his (membrane proximal end), respectively, according to the ELISA method in Example 8. The VHH humanized antibodies were classified based on the membrane distal end and the membrane proximal end, as shown in FIGS. 20A-20J and Table 44, which allowed the classification of the VHH humanized antibodies into the following classes: […]
Background: In an ELISA, binding on a coated surface is turned into a signal by an enzyme label.

Experiment [3] has as its target T2, human CD33-C2-his. Briefly: ELISA on coated human CD33-C2-his.
Source text: as §1
This is another data set of the same source.

The target of experiment [4] is T3, human CD33-His (extracellular domain Asp 18-His 259) (human, UniProt P20138 18-259).
T3 construct: range 18-259; bought protein; also called hCD33-his; human CD33 protein; not shown: His tag
T3 sequence (P20138 18-259 limits assumed): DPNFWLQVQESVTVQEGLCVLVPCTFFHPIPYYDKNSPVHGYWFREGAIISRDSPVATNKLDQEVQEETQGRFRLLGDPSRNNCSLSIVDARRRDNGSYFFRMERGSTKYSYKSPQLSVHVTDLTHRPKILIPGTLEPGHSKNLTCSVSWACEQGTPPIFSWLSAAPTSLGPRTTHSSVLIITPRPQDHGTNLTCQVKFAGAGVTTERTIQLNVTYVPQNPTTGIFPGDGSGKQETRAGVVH
Put plainly: competitive ELISA vs coated S006-NB146-1 2ug/mL; soluble 25ug/ml. As to the method: (§2) VHH antibodies and control antibodies with known epitopes were subjected to epitope classification with competitive ELISA. ELISA plates were coated with 2 μg/mL antibodies according to the method in Example 5.1; the human CD33-his protein was subjected to a gradient dilution from 30 μg/mL, and EC80 values (Tables 26-27) were calculated. ELISA plates were coated with 2 μg/mL antibodies; after 25 µg/mL of antibodies to be tested were added, a human CD33-his protein having an EC80 concentration corresponding to each of the antibodies to be tested was then added for incubation for 2 h. The plates were washed 5 times with PBS, then HRP-labeled anti-His antibodies (purchased from GenScript, Cat. No. A00612) were added for incubation for 1 h, and the plates were washed 5 times. A TMB substrate was added at 50 μL/well and incubated at room temperature for 10 min, then a stop solution (1.0 M HCl) was added at 50 μL/well. OD_{450 nm} values were read using an ELISA plate reader (Insight, purchased from PerkinElmer), and the competition rate between the antibodies was calculated according to the OD_{450 nm} values using a formula. The results are shown in FIGS. 12A-12B, the higher the value of the competition rate, the closer the epitopes to which two antibodies bind.

For experiment [5], the target named is T3, human CD33-His (extracellular domain …). Put plainly: competitive ELISA vs coated S006-NB146-20 2ug/mL; soluble 25ug/ml. The procedure: as §2
Experiment [6] shares this target. Briefly: competitive ELISA vs coated S006-NB146-39 2ug/mL; soluble 25ug/ml. The procedure: as §2
Experiment [7] shares this target. Briefly: competitive ELISA vs coated S006-NB146-16 3ug/mL; soluble 25ug/ml.
Another experiment concerns the target T4, monkey CD33-his protein (monkey).
T4 construct: bought protein; also called monkey CD33 protein (Sino Biological, Cat. No. 50712-M08H)
Briefly: SPR (Biacore), antibody captured on Protein A chip, monkey CD33 analyte. On the technique in general: Surface plasmon resonance follows binding to a sensor surface in real time, without labels.

The target in experiment [8] is T5, human CD33-his protein (human, UniProt P20138 18-259).
T5 construct: range 18-259; bought protein; also called hCD33-his; recombinant human CD33-his; not shown: His tag
T5 sequence (P20138 18-259 limits assumed): as above
Briefly: competition ELISA, coated human CD33-his, vs Biotin-C33B904 at EC80; antibody 0.49 nM. The procedure:
(§3) ELISA plates were coated with 2 μg/mL human CD33-his protein according to the method in Example 5.1; the Biotin-C331B904 antibody was subjected to a gradient dilution from 15 μg/mL, and EC80 values (0.18 μg/mL) were calculated. ELISA plates were coated with 2 μg/mL human CD33-his protein; starting from 40 μg/mL, the VHH antibodies to be tested were diluted in a 1:2 dilution ratio to obtain seven concentrations and added to the ELISA plates, and then Biotin-C331904 antibodies with the EC80 concentrations were added for incubation for 2 h. The plates were washed 5 times with PBS and then […] (purchased from Sigma, Cat. No. S2438) were added for incubation for 1 h, and the plates were washed 5 times. A TMB substrate was added at 50 μL/well and incubated at room temperature for 10 min, then a stop solution (1.0 M HCl) was added at 50 μL/well. OD_{450 nm} values were read using an ELISA plate reader (Insight, purchased from PerkinElmer). Then, analysis was performed by software (GraphPad Prism8), and data were fitted for curve plotting. The results are shown in FIGS. 13A-13B and Tables 28 and 29.

For experiment [9], the target named is T5, human CD33-his protein. Put plainly: competition ELISA, coated human CD33-his, vs Biotin-C33B904 at EC80; antibody 0 nM (no competitor). The procedure: as §3

T1 sequence (P20138 18-364): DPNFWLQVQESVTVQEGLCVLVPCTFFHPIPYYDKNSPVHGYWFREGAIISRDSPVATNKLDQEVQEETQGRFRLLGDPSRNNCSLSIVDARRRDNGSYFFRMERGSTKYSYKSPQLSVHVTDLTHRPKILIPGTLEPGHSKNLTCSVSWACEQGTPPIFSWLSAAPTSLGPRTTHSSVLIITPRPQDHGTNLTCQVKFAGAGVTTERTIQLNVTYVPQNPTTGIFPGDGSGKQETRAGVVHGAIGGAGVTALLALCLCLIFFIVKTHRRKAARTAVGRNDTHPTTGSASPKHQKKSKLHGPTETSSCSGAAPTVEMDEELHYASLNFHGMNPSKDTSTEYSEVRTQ

B1: C33B904 hIgG1 (antibody, V domains shown)
VH: EVQLVESGGGLVQPGRSLRLSCAASGFTFDDYAMHWVRQAPGKGLEWVSGIGWSGGSIVYADSVKGRFTISRDNAKNSLYLQMNSLRAEDTALYYCAKDSPYGDFFDYWGQGTLVTVSS
VL: DIVMTQSPDSLAVSLGERATINCKSSQTVFYSSNNKNYLAWYQQKPGQPPKLLISWASTRKSGVPDRFSGSGSGTDFTLTVSSLQAEDVAVYYCQHYYSTPYTFGQGTKLEIKR
notes: intact human IgG1; variable regions from US20190382481A1; also called C33B3904; C331B904
A word on the EC50: it is the concentration needed to bring the measured effect to its halfway point. By EC50 (read off the curve) is commonly meant the midpoint of the concentration-response curve. In experiment [1], B1 came in with an EC50 of 12.6 nM. The “Max MFI” value in [1] amounted to 682 MFI. Further, the “EC50 (read off the curve)” value was around 0.2 nM with human CD33-C2-his [2] and around 0.05 nM with human CD33-C2-his [3]. Moreover, the inhibition rate in experiment [4] was 100%; in experiment [5], 100%; in experiment [6], 85%; in [7], 100%.

B2: C33B904 (antibody, human IgG1, kappa, V domains shown)
VH: EVQLVESGGGLVQPGRSLRLSCAASGFTFDDYAMHWVRQAPGKGLEWVSGIGWSGGSIVYADSVKGRFTISRDNAKNSLYLQMNSLRAEDTALYYCAKDSPYGDFFDYWGQGTLVTVSS
VL: DIVMTQSPDSLAVSLGERATINCKSSQTVFYSSNNKNYLAWYQQKPGQPPKLLISWASTRKSGVPDRFSGSGSGTDFTLTVSSLQAEDVAVYYCQHYYSTPYTFGQGTKLEIKR
notes: control antibody, intact human IgG1 form; variable regions from US20190382481A1; also called C33B904 hIgG1; C331B904
For orientation: Kd means a measure of binding affinity in units of concentration. A word on the koff: it is the first-order rate constant of dissociation. One may read the kon as the second-order rate constant of association. Regarding B2, in the experiment with monkey CD33-his protein, the Kd was 0.565 nM, the koff came to 0.000626 s⁻¹ and the kon came out at 1.11e+06 M⁻¹ s⁻¹. In the experiment with human CD33-his protein [8], the “OD450 (Biotin-C33B904 signal)” value amounted to 2.26. For the same molecule, the “OD450 (Biotin-C33B904 signal)” value with human CD33-his protein [9] was determined as 2.33.
